Results reported in patent US20240141071A1 (LAVA THERAPEUTICS N V, published 2024).
Substitutions are numbered along the chain they refer to. In names and notes the source's numbering stands. One block for each binder: values may come before it.

Tests used:
[1] = target: T1, human CD123 expressed on cells (human, UniProt P26951 19-378); assay: cell-based or functional assay
[2] = target: T2, human CD131 (common β chain of the IL3 receptor) expressed on 293F cells (human, UniProt P32927 17-897); assay: flow cytometry on 293F cells transiently expressing CD131, AF647-labeled anti-VHH detection
T2 sequence: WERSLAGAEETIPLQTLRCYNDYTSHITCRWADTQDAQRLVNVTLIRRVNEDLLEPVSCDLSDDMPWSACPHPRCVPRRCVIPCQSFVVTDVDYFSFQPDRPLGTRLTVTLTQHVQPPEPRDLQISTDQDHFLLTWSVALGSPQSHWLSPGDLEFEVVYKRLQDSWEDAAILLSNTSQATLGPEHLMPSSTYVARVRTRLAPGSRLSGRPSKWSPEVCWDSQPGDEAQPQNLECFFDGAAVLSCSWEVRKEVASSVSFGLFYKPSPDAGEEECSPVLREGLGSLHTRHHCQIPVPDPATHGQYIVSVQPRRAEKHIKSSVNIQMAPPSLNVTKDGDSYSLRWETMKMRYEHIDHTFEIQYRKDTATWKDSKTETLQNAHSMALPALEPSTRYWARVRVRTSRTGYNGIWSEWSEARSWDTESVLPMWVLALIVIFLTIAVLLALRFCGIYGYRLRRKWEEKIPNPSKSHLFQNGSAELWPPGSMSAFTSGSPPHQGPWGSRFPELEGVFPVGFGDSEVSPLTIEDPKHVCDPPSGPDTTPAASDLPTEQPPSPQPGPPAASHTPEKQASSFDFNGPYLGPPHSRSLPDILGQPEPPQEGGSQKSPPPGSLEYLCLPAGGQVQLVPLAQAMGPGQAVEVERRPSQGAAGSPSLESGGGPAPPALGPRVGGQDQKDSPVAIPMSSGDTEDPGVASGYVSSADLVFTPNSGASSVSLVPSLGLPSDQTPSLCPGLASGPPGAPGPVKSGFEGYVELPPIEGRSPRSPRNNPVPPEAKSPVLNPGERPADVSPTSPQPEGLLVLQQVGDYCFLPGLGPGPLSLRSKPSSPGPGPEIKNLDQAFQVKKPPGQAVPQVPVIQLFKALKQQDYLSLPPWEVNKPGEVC
Method: Expression constructs for human CD123 and for the common β chain of the receptor (CD131) were purchased from Invivogen. Plasmids were transformed to chemically competent DH5α bacteria and a single colony growing on selective medium was used to inoculate a 50 ml culture to amplify both constructs. […] Either plasmid alone, or a mix of the two plasmids was used for transfection. As negative control, untransfected cells were also used for flow cytometry. A day after transfection, cells were used to test the binding of the bispecific VHH using staining in FACS. Briefly, binding of a saturating concentration of 100 nM bispecific VHH to transfected cells was detected with an AF647-labeled anti-VHH (Genscript) antibody and staining was visualized using a FACS Celesta (Becton and Dickinson).

BSA = target: T3, BSA (bovine, UniProt P02769); assay: ELISA, wells coated with 1% BSA (panel BSA), HRP anti-VHH detection
T3 construct: also called bovine serum albumin, negative control coating
Source text: FIG. 1: ELISA showing binding of all different bispecific VHHs to CD123, the Vγ9Vδ2 (GDT) TCR and BSA (as negative control). OD values are depicted; values are the mean of duplicate measurements; error bars indicate standard errors of the mean. A mono-valent anti-Vδ2 VHH was used as control for the TCR staining (“TCR control”) and a commercially available anti-CD123 antibody (“anti-CD123”) was used as control for the CD123 antigen coatings. “No AB” indicates a negative control without primary antibody.
Recombinant, purified CD123 antigen (extra-cellular domain; Sino Biological), or an Fc-fusion of the CD123 antigen (Bio-Techne/R&D Systems) was coated to the wells of an ELISA plate (Greiner) in PBS at a concentration of 2 μg/ml. As a negative control, wells were coated with 1% (w/v) BSA. An in-house designed, produced and purified recombinant form of the extra-cellular domains of the human Vγ9 and Vδ2 TCR chains fused to a human Fc was also coated as antigen at 2 μg/ml. After coating and blocking of the wells with 2% (w/v) BSA, bispecific VHH proteins were tested for binding at a saturating concentration of 50 nM and bound VHH was detected using an HRP-labeled anti-VHH antibody (Genscript) and staining using 3,3′,5,5′-tetramethylbenzidine (TMB)/H2O2.

[3] = target: T4, recombinant purified CD123-Fc fusion protein (Bio-Techne/R&D Systems) (human, UniProt P26951 19-305); assay: BLI, CD123-Fc on anti-human IgG Fc capture sensors; *low binding (>20 nM), one measurement only
T4 construct: Bought; also called Fc-fusion of the CD123 antigen; recombinant CD123
T4 sequence: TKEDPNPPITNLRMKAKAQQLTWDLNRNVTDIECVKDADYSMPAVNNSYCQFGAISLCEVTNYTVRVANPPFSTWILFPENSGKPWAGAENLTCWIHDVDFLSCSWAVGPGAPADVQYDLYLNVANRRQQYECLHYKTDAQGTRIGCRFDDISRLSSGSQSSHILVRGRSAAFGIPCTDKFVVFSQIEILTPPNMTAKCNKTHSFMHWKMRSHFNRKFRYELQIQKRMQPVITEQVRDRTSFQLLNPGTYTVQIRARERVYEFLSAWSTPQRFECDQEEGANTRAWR
Method: (§1) To determine the kinetics of binding of humanized 1D2-5C8var1 variants to CD123, recombinant purified CD123-Fc fusion protein (Bio-Techne/R&D Systems) was loaded to a density of 1 nm onto anti-human IgG Fc Capture sensors (using a concentration of 5 μg/ml) for an Octet Red96e (Sartorius) instrument. Different sensors were then dipped in different concentrations of humanized 1D2-5C8var1 variants, starting at 50 nM and two-fold dilutions thereof; dilutions were made in 10× kinetic buffer (10×KB) provided by the supplier. From the obtained sensorgrams, the kinetic association- and dissociation rate constants were determined by curve fitting. The association- and dissociation rate constants, when fitting was possible, were used to calculate the affinity of the humanized 1D2-5C8var1 variants for binding to CD123. […] For reference, the non-humanized (parental) 1D2 was included in these experiments.

[4] = target: T4, recombinant purified CD123-Fc fusion …; assay: BLI, CD123-Fc on anti-human IgG Fc capture sensors; SD 7.5
Method: as §1

[5] = target: T1, human CD123 expressed on cells; assay: flow cytometry on CD123 expressing C1R-CD1d cells (cell line used for immunization)
[6] = target: T5, Recombinant, purified CD123 antigen (extra-cellular domain; Sino Biological) (human, UniProt P26951 19-305); assay: phage ELISA on recombinant captured CD123 antigen
T5 construct: Bought; also called recombinant human CD123
T5 sequence: T4 sequence

T3 sequence (P02769 25-607 limits assumed): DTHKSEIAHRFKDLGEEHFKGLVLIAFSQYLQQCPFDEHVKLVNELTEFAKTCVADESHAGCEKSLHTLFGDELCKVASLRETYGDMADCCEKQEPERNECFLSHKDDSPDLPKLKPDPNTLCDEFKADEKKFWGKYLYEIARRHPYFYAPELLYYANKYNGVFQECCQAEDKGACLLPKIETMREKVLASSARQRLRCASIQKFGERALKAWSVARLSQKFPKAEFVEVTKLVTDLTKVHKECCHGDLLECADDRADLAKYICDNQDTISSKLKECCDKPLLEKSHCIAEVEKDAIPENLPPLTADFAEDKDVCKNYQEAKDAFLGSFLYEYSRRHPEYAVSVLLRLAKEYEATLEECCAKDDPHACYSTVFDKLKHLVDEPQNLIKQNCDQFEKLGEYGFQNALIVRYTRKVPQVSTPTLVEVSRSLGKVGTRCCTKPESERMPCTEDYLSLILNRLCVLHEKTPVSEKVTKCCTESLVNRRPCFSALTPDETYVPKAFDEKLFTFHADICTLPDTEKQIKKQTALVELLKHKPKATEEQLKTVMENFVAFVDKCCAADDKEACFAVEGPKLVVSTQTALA

B1: 1A3-5C8var1 bispecific VHH (bispecific antibody)
chain: EVQLVESGGGLVQAGGSLRLSCAASGRAINTYAMAWFRQAPGKERDFVATISYSGGTTDYAGSVKGRFTISRDNAENTVYLQMNSLKPEDTAVYYCAARDRYNPLARNYNYWGQGTQVTVSSGGGGSEVQLLESGGGSVQPGGSLRLSCAASGRPFSNYAMSWFRQAPGKEREFVSAISWSGGSTSYADSVKGRFTISRDNSKNTLYLQMNSLRAEDTAVYYCAAQFSGADYGFGRLGIRGYEYDYWGQGTQVTVSSAAAEPEA
notes: Same format as 1D2-5C8var1
EC50 of THP-1 target cell lysis by Vγ9Vδ2 T cells [1]: ~0.05 nM | binding result [2]: no binding (tested: 100 nM (single concentration)) | binding result (BSA): no binding (tested: 50 nM (single concentration))

B7: anti-CD123 VHH 1A3 (VHH)
VHH: EVQLVESGGGLVQAGGSLRLSCAASGRAINTYAMAWFRQAPGKERDFVATISYSGGTTDYAGSVKGRFTISRDNAENTVYLQMNSLKPEDTAVYYCAARDRYNPLARNYNYWGQGTQVTVSS
binding result [5]: binds | binding result [6]: binds

B8: 1D2-5C8var1(Y105F)-Fc (bispecific antibody, human IgG1, V domains shown)
V domain 1: EVQLVESGGGLVQAGGSLRLSCAASGRTASSYVMGWFRQAPGKEREFVAVINWNGDSTYYTDSVKGRFAISRDNAKNTVYLQMNSLKPEDTAVYYCAADTRREWYRDGYWGPPARYEYDYRGQGTQVTVSS
V domain 2: EVQLLESGGGSVQPGGSLRLSCAASGRPFSNYAMSWFRQAPGKEREFVSAISWSGGSTSYADSVKGRFTISRDNSKNTLYLQMNSLRAEDTAVYYCAAQFSGADFGFGRLGIRGYEYDYWGQGTQVTVSS
EC50 of THP-1 lysis, donor nr. 2 [1]: 0.001 nM | EC50 of THP-1 target cell lysis by Vγ9Vδ2 T cells, 24 h [1]: 0.001 to 0.003 nM | EC50 of THP-1 target cell lysis in THP-1/pDC/Vγ9Vδ2 T cell co-culture [1]: ~1 pM | EC50 of pDC lysis relative to THP-1 cell lysis [1]: ~10 fold | EC50 of pDC lysis, donor nr. 2 [1]: 11 pM

B9: anti-CD123 VHH 1D2 (VHH)
VHH: B8 V domain 1
notes: also called 1D2 VHH; lead anti-CD123 antibody
binding result [5]: binds | binding result [6]: binds

The remaining lines, values ahead:

Kd [3]: 24.5 nM
B2: humanized 1D2-5C8var1 variant with 1D2 var2 (SEQ ID NO:26) (bispecific antibody)
chain: EVQLVESGGGLVQPGGSLRLSCAASGRTASSYVMGWVRQAPGKEREWVSVINWNGDSTYYADSVKGRFTISRDNSKNTLYLQMNSLRAEDTAVYYCAADTRREWYRDGYWGPPARYEYDYRGQGTLVTVSSGGGGSEVQLLESGGGSVQPGGSLRLSCAASGRPFSNYAMSWFRQAPGKEREFVSAISWSGGSTSYADSVKGRFTISRDNSKNTLYLQMNSLRAEDTAVYYCAAQFSGADYGFGRLGIRGYEYDYWGQGTQVTVSSAAAEPEA
notes: See note of m19

Kd [4]: 20 nM
B3: humanized 1D2-5C8var1 variant with 1D2 var4 (SEQ ID NO:28) (bispecific antibody)
chain: B2 chain with L11V, G35S, V37F, S49A, L126T
notes: See note of m19

Kd [3]: 29.1 nM
B4: humanized 1D2-5C8var1 variant with 1D2 var6 (SEQ ID NO:30) (bispecific antibody)
chain: B2 chain with E44G, R45L
notes: See note of m19

Kd [3]: 44.1 nM
B5: humanized 1D2-5C8var1 variant with 1D2 var8 (SEQ ID NO:32) (bispecific antibody)
chain: B2 chain with G35S, V37F, E44G, R45L, S49A, L79V
notes: See note of m19

Kd [4]: 10.4 nM
B6: humanized 1D2-5C8var1 variant with 1D2 var10 (SEQ ID NO:34) (bispecific antibody)
chain: B2 chain with V37F, W47F, Y109F, L126Q
notes: See note of m19
